T1: ARHGEF11, O15085
T1 sequence (O15085 42-136, limits assumed, looked up): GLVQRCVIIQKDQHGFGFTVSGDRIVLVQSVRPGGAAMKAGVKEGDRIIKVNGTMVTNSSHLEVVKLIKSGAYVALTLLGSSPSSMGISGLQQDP

T2: DFNB31_1, Q9P202
T2 sequence (Q9P202 135-233, limits assumed, looked up): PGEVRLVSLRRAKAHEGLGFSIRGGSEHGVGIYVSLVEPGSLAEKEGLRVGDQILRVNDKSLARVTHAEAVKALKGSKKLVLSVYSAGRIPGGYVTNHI

T3: GRIP1_7, Q9Y3R0
T3 sequence (Q9Y3R0 999-1096, limits assumed, looked up): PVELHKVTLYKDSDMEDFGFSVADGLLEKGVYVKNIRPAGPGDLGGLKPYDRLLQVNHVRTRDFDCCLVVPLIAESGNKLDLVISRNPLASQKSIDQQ

T4: HTRA4, P83105
T4 sequence (P83105 378-476, limits assumed, looked up): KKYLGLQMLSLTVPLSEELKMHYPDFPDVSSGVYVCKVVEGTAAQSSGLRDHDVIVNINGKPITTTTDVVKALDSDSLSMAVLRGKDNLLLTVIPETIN

T5: LIN7A, O14910
T5 sequence (O14910 103-200, limits assumed, looked up): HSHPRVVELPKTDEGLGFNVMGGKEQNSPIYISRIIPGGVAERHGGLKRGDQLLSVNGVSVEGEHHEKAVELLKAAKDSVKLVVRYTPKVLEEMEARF

T6: LNX2_2, Q8N448
T6 sequence (Q8N448 334-432, limits assumed, looked up): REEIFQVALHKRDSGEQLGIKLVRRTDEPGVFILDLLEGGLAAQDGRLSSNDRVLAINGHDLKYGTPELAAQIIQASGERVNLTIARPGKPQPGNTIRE

T7: MPDZ_10, O75970
T7 sequence (O75970 1624-1722, limits assumed, looked up): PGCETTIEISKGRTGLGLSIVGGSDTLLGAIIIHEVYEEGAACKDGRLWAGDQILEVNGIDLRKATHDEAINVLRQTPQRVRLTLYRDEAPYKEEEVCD

T8: MPP2, Q14168
T8 sequence (Q14168 180-250, limits assumed, looked up): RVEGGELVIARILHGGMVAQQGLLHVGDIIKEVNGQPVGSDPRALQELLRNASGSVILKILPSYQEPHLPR

T9: NHERF3_4, Q5T2W1
T9 sequence (Q5T2W1 373-468, limits assumed, looked up): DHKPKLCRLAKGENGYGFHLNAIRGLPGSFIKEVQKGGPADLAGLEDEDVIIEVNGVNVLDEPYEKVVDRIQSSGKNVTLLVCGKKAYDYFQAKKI

T10: PCLO, Q9Y6V0
T10 sequence (Q9Y6V0 4491-4600, limits assumed, looked up): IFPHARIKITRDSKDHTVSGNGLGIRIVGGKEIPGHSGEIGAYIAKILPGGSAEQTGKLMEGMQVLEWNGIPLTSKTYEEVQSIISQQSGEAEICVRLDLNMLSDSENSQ

T11: RADIL, Q96JH8
T11 sequence (Q96JH8 971-1071, limits assumed, looked up): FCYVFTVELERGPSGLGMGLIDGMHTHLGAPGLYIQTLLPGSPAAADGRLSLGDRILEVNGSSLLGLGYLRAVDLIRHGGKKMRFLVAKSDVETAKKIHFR

T12: TX1BP3, O14907
T12 sequence (O14907 10-122, limits assumed, looked up): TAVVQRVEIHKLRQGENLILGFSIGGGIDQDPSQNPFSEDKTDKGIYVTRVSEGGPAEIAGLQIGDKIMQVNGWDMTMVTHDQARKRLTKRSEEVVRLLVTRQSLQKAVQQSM


Columns and labels:
Assay in all cases: holdup assay
Design in all cases: key: below the threshold = too weak to quantify, mostly under pKd 3.1 to 4
Details in all cases: plain residues with an end cap or a label only (N-terminal biotin on a linker: ado-ado)
ARHGEF11, O15085 = molecular target: T1, ARHGEF11, O15085
DFNB31_1, Q9P202 = molecular target: T2, DFNB31_1, Q9P202
FRMPD2_1, Q68DX3 = molecular target: FRMPD2_1, Q68DX3
Chain of FRMPD2_1, Q68DX3 (Q68DX3 770-861): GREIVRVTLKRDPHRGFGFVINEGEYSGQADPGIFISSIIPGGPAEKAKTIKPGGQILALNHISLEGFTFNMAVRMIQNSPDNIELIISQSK

FRMPD2_2, Q68DX3 = molecular target: FRMPD2_2, Q68DX3
Chain of FRMPD2_2, Q68DX3 (Q68DX3 944-1038): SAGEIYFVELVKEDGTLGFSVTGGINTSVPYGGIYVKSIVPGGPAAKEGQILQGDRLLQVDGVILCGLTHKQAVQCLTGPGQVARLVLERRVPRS

GOPC, Q9HD26 = molecular target: GOPC, Q9HD26
GRIP1_7, Q9Y3R0 = molecular target: T3, GRIP1_7, Q9Y3R0
HTRA4, P83105 = molecular target: T4, HTRA4, P83105
IL16_3, Q14005 = molecular target: IL16_3, Q14005
Chain of IL16_3, Q14005 (Q14005 1107-1207): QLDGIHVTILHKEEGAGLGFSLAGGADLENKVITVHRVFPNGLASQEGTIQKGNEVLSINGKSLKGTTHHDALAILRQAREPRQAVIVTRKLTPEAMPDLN

Inadl_10, Q8NI35 = molecular target: Inadl_10, Q8NI35
Chain of Inadl_10, Q8NI35 (Q8NI35 1673-1763): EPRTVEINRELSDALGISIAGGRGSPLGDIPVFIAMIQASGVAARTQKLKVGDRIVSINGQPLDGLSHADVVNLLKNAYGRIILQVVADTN

Inadl_5, Q8NI35 = molecular target: Inadl_5, Q8NI35
Chain of Inadl_5, Q8NI35 (Q8NI35 673-780): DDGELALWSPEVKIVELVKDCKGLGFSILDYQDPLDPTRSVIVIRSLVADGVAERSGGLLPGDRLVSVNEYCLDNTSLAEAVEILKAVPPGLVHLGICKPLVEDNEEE

Inadl_9, Q8NI35 = molecular target: Inadl_9, Q8NI35
Chain of Inadl_9, Q8NI35 (Q8NI35 1530-1615): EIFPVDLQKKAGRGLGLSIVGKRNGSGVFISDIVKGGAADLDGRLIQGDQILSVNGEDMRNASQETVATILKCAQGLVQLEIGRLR

LIN7A, O14910 = molecular target: T5, LIN7A, O14910
LNX1_3, Q8TBB1 = molecular target: LNX1_3, Q8TBB1
Chain of LNX1_3, Q8TBB1 (Q8TBB1 500-596): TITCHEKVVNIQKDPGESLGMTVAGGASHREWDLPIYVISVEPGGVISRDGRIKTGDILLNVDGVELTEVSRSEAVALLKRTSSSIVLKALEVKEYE

LNX2_2, Q8N448 = molecular target: T6, LNX2_2, Q8N448
MAGI1_1, Q96QZ7 = molecular target: MAGI1_1, Q96QZ7
Chain of MAGI1_1, Q96QZ7 (Q96QZ7 1-106): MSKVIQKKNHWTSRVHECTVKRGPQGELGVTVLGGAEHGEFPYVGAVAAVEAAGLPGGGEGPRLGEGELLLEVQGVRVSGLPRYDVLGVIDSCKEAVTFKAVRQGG

MAGI1_2, Q96QZ7 = molecular target: MAGI1_2, Q96QZ7
Chain of MAGI1_2, Q96QZ7 (Q96QZ7 456-580): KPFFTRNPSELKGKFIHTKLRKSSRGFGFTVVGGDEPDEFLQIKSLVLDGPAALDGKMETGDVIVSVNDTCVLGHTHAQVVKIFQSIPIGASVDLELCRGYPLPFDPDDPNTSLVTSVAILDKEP

MAGI3_2, Q5TCQ9 = molecular target: MAGI3_2, Q5TCQ9
Chain of MAGI3_2, Q5TCQ9 (Q5TCQ9 398-503): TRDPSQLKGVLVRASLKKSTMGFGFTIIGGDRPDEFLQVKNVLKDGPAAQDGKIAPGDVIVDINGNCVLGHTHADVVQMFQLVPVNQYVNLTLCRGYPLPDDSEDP

MPDZ_10, O75970 = molecular target: T7, MPDZ_10, O75970
MPP2, Q14168 = molecular target: T8, MPP2, Q14168
NHERF3_4, Q5T2W1 = molecular target: T9, NHERF3_4, Q5T2W1
PCLO, Q9Y6V0 = molecular target: T10, PCLO, Q9Y6V0
RADIL, Q96JH8 = molecular target: T11, RADIL, Q96JH8
TJP1_2, Q07157 = molecular target: TJP1_2, Q07157
Chain of TJP1_2, Q07157 (Q07157 181-274): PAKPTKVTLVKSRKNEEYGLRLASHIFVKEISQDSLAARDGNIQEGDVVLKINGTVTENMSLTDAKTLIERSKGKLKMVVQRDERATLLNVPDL

TJP2_1, Q9UDY2 = molecular target: TJP2_1, Q9UDY2
Chain of TJP2_1, Q9UDY2 (Q9UDY2 24-128): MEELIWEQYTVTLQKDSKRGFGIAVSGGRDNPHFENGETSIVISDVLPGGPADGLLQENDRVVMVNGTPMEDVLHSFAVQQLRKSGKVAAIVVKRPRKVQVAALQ

TX1BP3, O14907 = molecular target: T12, TX1BP3, O14907

pKd (ARHGEF11, O15085) | pKd (DFNB31_1, Q9P202) | pKd (FRMPD2_1, Q68DX3) | pKd (FRMPD2_2, Q68DX3) | pKd (GOPC, Q9HD26) | pKd (GRIP1_7, Q9Y3R0) | pKd (HTRA4, P83105) | pKd (IL16_3, Q14005) | pKd (Inadl_10, Q8NI35) | pKd (Inadl_5, Q8NI35) | pKd (Inadl_9, Q8NI35) | pKd (LIN7A, O14910) | pKd (LNX1_3, Q8TBB1) | pKd (LNX2_2, Q8N448) | pKd (MAGI1_1, Q96QZ7) | pKd (MAGI1_2, Q96QZ7) | pKd (MAGI3_2, Q5TCQ9) | pKd (MPDZ_10, O75970) | pKd (MPP2, Q14168) | pKd (NHERF3_4, Q5T2W1) | Binder | other results
4.29 | below the threshold | below the threshold | below the threshold | below the threshold | below the threshold | below the threshold | below the threshold | below the threshold | below the threshold | below the threshold | below the threshold | below the threshold | below the threshold | below the threshold | 4.19 | 4.16 | below the threshold | below the threshold | below the threshold | VNKSKLLTDV [KCNA1, Q09470] | pKd (PCLO, Q9Y6V0): below the threshold; pKd (RADIL, Q96JH8): below the threshold; pKd (TJP1_2, Q07157): below the threshold; pKd (TJP2_1, Q9UDY2): below the threshold; pKd (TX1BP3, O14907): 4.22
3.92 | 3.68 | below the threshold | below the threshold | 4.06 | below the threshold | below the threshold | below the threshold | below the threshold | below the threshold | below the threshold | below the threshold | below the threshold | below the threshold | below the threshold | below the threshold | below the threshold | 3.69 | below the threshold | below the threshold | TPPAAKKSRI [BAZ1A, Q9NRL2] | pKd (PCLO, Q9Y6V0): below the threshold; pKd (RADIL, Q96JH8): below the threshold; pKd (TJP1_2, Q07157): below the threshold; pKd (TJP2_1, Q9UDY2): below the threshold; pKd (TX1BP3, O14907): below the threshold
below the threshold | 4.41 | below the threshold | below the threshold | below the threshold | below the threshold | below the threshold | below the threshold | below the threshold | below the threshold | below the threshold | below the threshold | below the threshold | below the threshold | below the threshold | below the threshold | below the threshold | below the threshold | below the threshold | 4.13 | NLSIEKETKL [ASNSD1, Q9NWL6] | pKd (PCLO, Q9Y6V0): below the threshold; pKd (RADIL, Q96JH8): below the threshold; pKd (TJP1_2, Q07157): below the threshold; pKd (TJP2_1, Q9UDY2): below the threshold; pKd (TX1BP3, O14907): 3.53
below the threshold | 5.32 | below the threshold | 3.92 | 3.99 | below the threshold | below the threshold | below the threshold | below the threshold | below the threshold | below the threshold | below the threshold | below the threshold | below the threshold | below the threshold | below the threshold | 4.37 | below the threshold | below the threshold | below the threshold | SKENVQETQI [LRRC4B, Q9NT99] | pKd (PCLO, Q9Y6V0): below the threshold; pKd (RADIL, Q96JH8): below the threshold; pKd (TJP1_2, Q07157): below the threshold; pKd (TJP2_1, Q9UDY2): below the threshold; pKd (TX1BP3, O14907): below the threshold
3.7 | 3.69 | below the threshold | below the threshold | below the threshold | below the threshold | 4.14 | below the threshold | 3.59 | below the threshold | below the threshold | 3.52 | below the threshold | below the threshold | below the threshold | below the threshold | below the threshold | below the threshold | below the threshold | 3.48 | EVNETDDTKM [KCNJ1, P48048] | pKd (PCLO, Q9Y6V0): below the threshold; pKd (RADIL, Q96JH8): 3.56; pKd (TJP1_2, Q07157): below the threshold; pKd (TJP2_1, Q9UDY2): below the threshold; pKd (TX1BP3, O14907): 4.15

— PMC9482650, “Quantitative fragmentomics allow affinity mapping of interactomes” (Nature Communications, 2022)
